Columns and labels:
Assay in all cases: flow cytometry of CAR T cells stained with Fc-fusion antigen and anti-human Fc-specific antibodies
CAR-10 = target: T1, CAR-10 (human, UniProt P01732 183-206; Q07011 214-255; P20963 52-163)
T1 construct: domain: transmembrane domain;domain: 4-1BB domain;domain: CD3zeta domain; Chimeric antigen receptor on transduced human T cells; also called CAR10bbz; pTRPE-C10-gs-BBz
Description: (§1) To create CAR-T expressing cells, human T cells from healthy donors were activated with anti-CD3 and anti-CD28 coated paramagnetic beads (DYNABEADS® Human T-Activator CD3/CD28, Life Technologies). One day following activation, cells were transduced with lentiviral vectors encoding GFRα4-directed CARs (original rabbit P4-10 and humanized versions), a CD19-directed control CAR (FMC63(cd8)bbz), or were left non-transduced (NTD). Cells were expanded and on day 7, cells were evaluated for cell-surface expression of the CARs by flow cytometry (FACSCalibur, BD Biosciences, Franklin Lakes, N.J.). Fluorescently-labeled goat anti-rabbit antibodies detected CAR P4-10, the original rabbit GFRα4-directed CAR, and fluorescently-labeled Protein L detected the murine CD19-directed CAR (FIG. 19A, “P410” and “19bbz”, respectively). Fluorescently-labeled rabbit anti-human antibodies (“RaH”) detected CARs 10, 14, 25, and 29 (FIG. 19B). Expression of cell-surface CARs were also detected by staining with antigen using recombinant human Fc-fusions of GFRα4 or CD19 antigen followed by detection of bound antigen with fluorescently-labeled anti-human Fc-specific antibodies (FIG. 19C). Appropriately, CD19-Fc only bound to CD19-directed CARs while GFRα4-Fc bound to both rabbit P4-10 and humanized P4-10 CARs but not the CD19-directed CAR.

CAR-14 = target: T2, CAR-14 (human, UniProt P01732 183-206; Q07011 214-255; P20963 52-163)
T2 construct: domain: transmembrane domain;domain: 4-1BB domain;domain: CD3zeta domain; Chimeric antigen receptor on transduced human T cells; also called pTRPE-C14-gs-BBz
T2 sequence (P01732 other isoform, or with tags, fused parts or gaps limits assumed): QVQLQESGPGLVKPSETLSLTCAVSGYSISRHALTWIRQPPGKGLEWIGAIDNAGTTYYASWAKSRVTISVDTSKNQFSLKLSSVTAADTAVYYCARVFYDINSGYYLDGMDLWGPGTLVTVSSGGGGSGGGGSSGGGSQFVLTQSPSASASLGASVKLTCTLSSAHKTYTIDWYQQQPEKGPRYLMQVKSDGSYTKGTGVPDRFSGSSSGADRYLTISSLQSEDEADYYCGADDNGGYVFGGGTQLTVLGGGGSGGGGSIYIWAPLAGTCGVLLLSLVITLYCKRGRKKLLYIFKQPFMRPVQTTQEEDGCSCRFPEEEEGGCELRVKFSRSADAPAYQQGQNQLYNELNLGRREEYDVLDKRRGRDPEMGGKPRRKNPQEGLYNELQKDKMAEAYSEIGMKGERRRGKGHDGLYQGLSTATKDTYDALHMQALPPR
Description: as §1

CAR-25 = target: T3, CAR-25 (human, UniProt P01732 183-206; Q07011 214-255; P20963 52-163)
T3 construct: domain: transmembrane domain;domain: 4-1BB domain;domain: CD3zeta domain; Chimeric antigen receptor on transduced human T cells; also called pTRPE-C25-gs-BBz
T3 sequence (P01732 other isoform, or with tags, fused parts or gaps limits assumed): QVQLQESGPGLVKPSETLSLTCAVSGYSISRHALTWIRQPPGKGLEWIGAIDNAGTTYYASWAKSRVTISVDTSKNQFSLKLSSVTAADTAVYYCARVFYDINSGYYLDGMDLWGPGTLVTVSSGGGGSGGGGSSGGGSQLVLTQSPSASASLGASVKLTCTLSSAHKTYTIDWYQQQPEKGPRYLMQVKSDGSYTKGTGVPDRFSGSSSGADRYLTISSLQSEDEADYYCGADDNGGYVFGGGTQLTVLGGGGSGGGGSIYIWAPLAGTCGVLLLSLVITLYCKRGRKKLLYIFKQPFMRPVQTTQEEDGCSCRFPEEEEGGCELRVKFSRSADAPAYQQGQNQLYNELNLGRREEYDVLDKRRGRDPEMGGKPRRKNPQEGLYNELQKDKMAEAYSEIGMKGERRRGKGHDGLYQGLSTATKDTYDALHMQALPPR
Description: as §1

CAR-29 = target: T4, CAR-29 (human, UniProt P01732 183-206; Q07011 214-255; P20963 52-163)
T4 construct: domain: transmembrane domain;domain: 4-1BB domain;domain: CD3zeta domain; Chimeric antigen receptor on transduced human T cells; also called pTRPE-C29-gs-BBz
T4 sequence (P01732 other isoform, or with tags, fused parts or gaps limits assumed): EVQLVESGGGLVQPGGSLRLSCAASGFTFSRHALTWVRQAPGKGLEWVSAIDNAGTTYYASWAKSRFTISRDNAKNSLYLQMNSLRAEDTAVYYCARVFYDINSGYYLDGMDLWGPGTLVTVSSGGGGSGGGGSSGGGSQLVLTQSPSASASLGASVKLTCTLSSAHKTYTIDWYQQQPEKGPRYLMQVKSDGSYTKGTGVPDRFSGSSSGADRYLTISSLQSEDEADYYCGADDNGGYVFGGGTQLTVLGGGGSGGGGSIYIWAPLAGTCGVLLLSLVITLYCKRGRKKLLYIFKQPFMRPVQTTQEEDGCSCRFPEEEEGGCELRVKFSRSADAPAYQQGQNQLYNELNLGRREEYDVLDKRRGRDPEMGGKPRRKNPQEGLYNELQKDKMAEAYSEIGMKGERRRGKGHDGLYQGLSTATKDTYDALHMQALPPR
Description: as §1

Measured: binding result

T1 sequence (P01732 other isoform, or with tags, fused parts or gaps limits assumed): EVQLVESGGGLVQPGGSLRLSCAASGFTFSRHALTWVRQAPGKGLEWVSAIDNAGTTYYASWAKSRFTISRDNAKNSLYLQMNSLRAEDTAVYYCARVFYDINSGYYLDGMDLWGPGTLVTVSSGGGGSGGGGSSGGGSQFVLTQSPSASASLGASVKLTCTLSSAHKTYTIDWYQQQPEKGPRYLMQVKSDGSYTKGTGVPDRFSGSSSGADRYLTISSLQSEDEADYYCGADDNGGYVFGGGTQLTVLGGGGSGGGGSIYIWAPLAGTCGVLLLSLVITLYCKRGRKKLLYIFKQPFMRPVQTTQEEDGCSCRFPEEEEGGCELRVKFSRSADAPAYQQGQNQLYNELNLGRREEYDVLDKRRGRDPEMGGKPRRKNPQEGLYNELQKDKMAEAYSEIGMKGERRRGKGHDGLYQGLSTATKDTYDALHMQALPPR

B1: CD19-Fc (Fc fusion, UniProt P15391 20-291, looked up)
chain: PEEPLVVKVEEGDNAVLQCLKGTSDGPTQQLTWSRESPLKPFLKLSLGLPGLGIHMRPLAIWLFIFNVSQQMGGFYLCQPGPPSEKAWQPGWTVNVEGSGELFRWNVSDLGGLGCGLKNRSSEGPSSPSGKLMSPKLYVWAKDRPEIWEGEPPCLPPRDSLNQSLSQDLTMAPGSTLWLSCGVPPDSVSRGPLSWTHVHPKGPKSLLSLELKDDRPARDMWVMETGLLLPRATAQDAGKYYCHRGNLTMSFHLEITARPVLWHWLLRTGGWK
notes: The words recombinant human Fc-fusions leave open whether human means the Fc or the antigen; also called recombinant human Fc-fusion of CD19 antigen; Fc-conjugated soluble CD19; not shown: human Fc
no binding: all assays above

From US20210095036A1 (University of Pennsylvania, published 2021)
